Where only a bound is given, the exact number is not on record here.

To fix the notation:
B1: pSer162-PDZ2 (133–300 aa) (domain or fragment)
chain: NENEPREADKSHPEQRELRPRLCTMKKGPSGYGFNLHSDKSKPGQFIRSVDPDSPAEASGLRAQDRIVEVNGVCMEGKQHGDVVSAIRAGGDETKLLVVDRETDEFFKKCRVIPSQEHLNGPLPVPFTNGEIQKENSREALAEAALESPRPALVRSASSDTSEELNSQ
modifications: phosphoserine at 162
B2: S162A-PDZ2 (133–300 aa) (domain or fragment)
chain: NENEPREADKSHPEQRELRPRLCTMKKGPAGYGFNLHSDKSKPGQFIRSVDPDSPAEASGLRAQDRIVEVNGVCMEGKQHGDVVSAIRAGGDETKLLVVDRETDEFFKKCRVIPSQEHLNGPLPVPFTNGEIQKENSREALAEAALESPRPALVRSASSDTSEELNSQ
B3: WT PDZ2 domain (133–300 aa) of NHERF1 (domain or fragment)
chain: NENEPREADKSHPEQRELRPRLCTMKKGPSGYGFNLHSDKSKPGQFIRSVDPDSPAEASGLRAQDRIVEVNGVCMEGKQHGDVVSAIRAGGDETKLLVVDRETDEFFKKCRVIPSQEHLNGPLPVPFTNGEIQKENSREALAEAALESPRPALVRSASSDTSEELNSQ
B4: recombinant full-length NHERF1 (natural protein)
chain: MSADAAAGAPLPRLCCLEKGPNGYGFHLHGEKGKLGQYIRLVEPGSPAEKAGLLAGDRLVEVNGENVEKETHQQVVSRIRAALNAVRLLVVDPETDEQLQKLGVQVREELLRAQEAPGQAEPPAAAEVQGAGNENEPREADKSHPEQRELRPRLCTMKKGPSGYGFNLHSDKSKPGQFIRSVDPDSPAEASGLRAQDRIVEVNGVCMEGKQHGDVVSAIRAGGDETKLLVVDRETDEFFKKCRVIPSQEHLNGPLPVPFTNGEIQKENSREALAEAALESPRPALVRSASSDTSEELNSQDSPPKQDSTAPSSTSSSDPILDFNISLAMAKERAHQKRSSKRAPQMDWSKKNELFSNL
B5: recombinant N1P2-GAGA (natural protein)
chain: MSADAAAGAPLPRLCCLEKGPNGYGFHLHGEKGKLGQYIRLVEPGSPAEKAGLLAGDRLVEVNGENVEKETHQQVVSRIRAALNAVRLLVVDPETDEQLQKLGVQVREELLRAQEAPGQAEPPAAAEVQGAGNENEPREADKSHPEQRELRPRLCTMKKGPSGAGANLHSDKSKPGQFIRSVDPDSPAEASGLRAQDRIVEVNGVCMEGKQHGDVVSAIRAGGDETKLLVVDRETDEFFKKCRVIPSQEHLNGPLPVPFTNGEIQKENSREALAEAALESPRPALVRSASSDTSEELNSQDSPPKQDSTAPSSTSSSDPILDFNISLAMAKERAHQKRSSKRAPQMDWSKKNELFSNL
B6: recombinant N1P1-GAGA (natural protein)
chain: MSADAAAGAPLPRLCCLEKGPNGAGAHLHGEKGKLGQYIRLVEPGSPAEKAGLLAGDRLVEVNGENVEKETHQQVVSRIRAALNAVRLLVVDPETDEQLQKLGVQVREELLRAQEAPGQAEPPAAAEVQGAGNENEPREADKSHPEQRELRPRLCTMKKGPSGYGFNLHSDKSKPGQFIRSVDPDSPAEASGLRAQDRIVEVNGVCMEGKQHGDVVSAIRAGGDETKLLVVDRETDEFFKKCRVIPSQEHLNGPLPVPFTNGEIQKENSREALAEAALESPRPALVRSASSDTSEELNSQDSPPKQDSTAPSSTSSSDPILDFNISLAMAKERAHQKRSSKRAPQMDWSKKNELFSNL
B7: NHERF1 PDZ1 domain (1-140 aa), isolated (domain or fragment)
chain: MSADAAAGAPLPRLCCLEKGPNGYGFHLHGEKGKLGQYIRLVEPGSPAEKAGLLAGDRLVEVNGENVEKETHQQVVSRIRAALNAVRLLVVDPETDEQLQKLGVQVREELLRAQEAPGQAEPPAAAEVQGAGNENEPREA

The target in the first assay is FITC-labeled human GRK6A C-terminal 22 amino acid peptide, GRK6Act-22 (human). As to the kind of experiment: fluorescence polarisation; fluorescence anisotropy, direct saturation binding in solution; recombinant protein titrated to fixed FITC-GRK6Act-22 (0.4–1.0 μM); PBS pH 7.4, 0.1% BSA, 1 mM DTT, 23 °C; quadratic fit.
For B1, the dissociation constant Kd worked out at 26.1 µM.
As to B2, the Kd was found to be 43.4 µM.
As for B3, the Kd stood at 51.3 µM.
With B4, the equilibrium dissociation constant (Kd) is 5.3 µM.
Turning to B5, the dissociation constant (Kd) amounted to 3.6 µM.
The same measure, in the same setting: to B6 belongs over 100 µM.

The next assay has the same target. As to the kind of experiment: fluorescence polarisation; fluorescence anisotropy saturation binding in solution; increasing amounts of recombinant protein added to a fixed concentration of FITC-labeled GRK6Act-22 (0.4-1.0 uM); PBS pH 7.4, 0.1% BSA, 1 mM DTT; 23 °C; 96-well format; quadratic fit.
For the molecule B7, the Kd is 6.6 µM.

The values above are taken from publication PMC8042174.
